From US20210187071A1, “COMPOSITIONS COMPRISING MDA-7/IL-24 PROTEIN AND METHODS OF USE” (VIRGINIA COMMONWEALTH UNIVERSITY, priority 2017, published 2021)
“Also recorded” adds a separate entry of the source. Read-outs that look alike come from different tables or passages of the source.

How the values were obtained:
bone marrow cells = experiment: Osteoclast differentiation of bone marrow from animals injected with elevated Akt-stable expression cells; assay type: in vivo, mice; conditions: MDA-7/IL-24 protein 5 mg/kg, 6 doses; differentiation induced ex vivo
Description: Osteoclast Formation Assays: Bone marrow cells were induced for osteoclast differentiation using previously described protocols (28). Briefly, bone marrow cells were cultured in minimal essential medium (α-MEM) with 10% fetal bovine serum with MCSF (10 ng/ml) for 24 hrs. They were subsequently treated with RANKL (100 ng/ml) for 5 days. Cultured cells were fixed and stained for TRAP (Tartarate-resistant acid phosphatase). TRAP staining was performed following the specific protocol provided with the kit (Sigma-Aldrich, Inc. St. Louis, Mo., USA). Multinucleated cells, considered as differentiated osteoclasts, were counted manually under bright field microscope. TRACP enzymatic assays were done as per the manufacturer's instructions (R & D, Minneapolis, Minn., USA).
To evaluate the role of Akt in vivo, metastatic PC3-ML cells and PC3-ML cells over expressing constitutively active Akt (PC3-MI/**) (FIG. 5A) carrying firefly luciferase were injected into male athymic nude mice through the intracardiac route. Clone 1 was used for the in vivo studies, which was validated for expression of Akt downstream pathway gene expression by western blotting (FIG. 14). Proliferation, invasion, and migration of the tumor cells were monitored by IVIS® imaging. […] The Akt overexpressing PC3-ML cells were more metastatic than the control PC3-ML cells. […]

[1] = test system: Akt signaling (p-Akt, p-GSK3β, NFATc1, Mcl-1); experiment: Western blotting of Akt signaling cascade in RAW 264.7 cells; assay type: cell-based, mouse
Source text: Western Blotting: Standard protocols were followed for Western blotting assays (24, 27). The primary antibodies used were pAkt, Akt, pGSK3β, GSK3β, NFATc1, cyclin D1 (Cell Signaling Technology, Danvers, Mass., USA) and EF1α (Abeam, Cambridge, United Kingdom). Appropriate secondary antibodies were purchased from Sigma-Aldrich, Inc. St. Louis, Mo., USA).
MDA-7/IL-24 Regulates AKT Signaling in Mouse Macrophage cells: To determine whether MDA-7/IL-24 protein exerts any effect on Akt activation in our model system, RAW 264.7 cells were treated with MDA-7/IL-24 protein in the presence or absence of RANKL. It was observed that RANKL induces Akt activation in RAW 264.7 cells, and this activated Akt was suppressed by MDA-7/IL-24 protein (FIGS. 3A and 11A). […] The effect of Akt inhibition by a PI3K kinase inhibitor (LY294002) was also studied in the signaling cascade involving NFAT, Mcl-1, and Akt (FIGS. 3B and 11B).
A constitutively active form of Akt (MYR-Akt) was also tested. Cells were transfected with MYR-Akt and treated with MDA-7/IL-24.

PC3-ML cells [2] = experiment: MTT cell proliferation assay in PC3-ML cells; assay type: cell-based; conditions: PC3-ML cells treated with MDA-7/IL-24 protein
Description: Purification of Recombinant His-MDA-7 Protein: IM-PHFA cells were infected with Ad.5-His-mda-7 using a published protocol (24). Cell supernatant was mixed with Ni-NTA (a nickel-nitrilotriacetic) acid slurry to allow binding of MDA-7/IL-24 to the Ni-NTA beads. Twenty-four hours after incubation, the Ni-NTA beads were collected, washed, and the purified MDA-7/IL-24 protein was eluted in imidazole buffer. The protein was validated by western blotting using anti-MDA-7 antibody (Genhunter Corporation, Nashville, Tenn., USA). Biological activity was checked in PC3-ML cells by MTT assay (25).
MTT Cell Proliferation and Clonal Assays: Cell proliferation assays were done as described previously (25). Briefly, 2,000 cells were seeded in each well of a 96-well plate and allowed to attach overnight. Cells were treated with complete media in the presence or absence of different concentrations of MDA-7/IL-24 protein. At appropriate time points, cells were further incubated with MTT (3-(4, 5-di methyl thiazol-2-yl)-2, 5 diphenyl tetrazolium bromide) reagents. Finally, DMSO was applied to dissolve the blue salt and the OD was measured at 560 nm (25). For determining long-term effects, colony formation (cloning) assays were performed as described earlier (26). Briefly, 200 cells were plated and allowed to grow in the presence or absence of MDA-7/IL-24 for an additional 15 days. […]

PC3-ML cells [3] = conditions: for bone metastasis (BLI signal / luciferase intensity): MDA-7/IL-24 protein 5 mg/kg tail vein, 6 doses over three weeks, vs untreated control; for survival: MDA-7/IL-24 protein 5 mg/kg, 6 doses; for toxicity in animals: delivered repeatedly systemically in mice
Description: In vivo Metastasis Studies: All animal studies were approved by the Institutional Animal Care and Use Committee (Virginia Commonwealth University). For experimental bone metastasis assays, 6-8-week-old male athymic nude mice (purchased from Harlan, USA) were injected with 1×10^5 PC3-ML cells stably expressing firefly luciferase gene through an intracardiac route. For determining the therapeutic activity of MDA-7/IL-24 protein, mice received an intravenous injection of recombinant protein (5 mg/kg), one day after implantation of cells. Animals were treated with therapeutics for a total of 6 times (2× a week for first 3 weeks). […] Image of the bone region was monitored by a BLI (bioluminescence imaging) method using an IVIS® imaging system (15, 19, 20).
In this model, stable luciferase expressing PC3-ML cells were injected in male athymic nude mice through an intracardiac route to produce bone metastases. The expansion, invasion, and migration of PC3-ML cells were monitored by IVIS® imaging (15, 20, 23). […] BLI imaging followed development of metastatic lesions in bone. […] To determine the effect of MDA-7/IL-24 on primary bone marrow in animals, cells from the bone cavity were isolated and treated with His-MDA-7 at different doses in vitro.

[4] = listed as recombinant MDA-7/IL-24

B1: MDA-7/IL-24 protein: Recombinant His-tagged MDA-7/IL-24 protein purified on Ni-NTA from supernatant of IM-PHFA cells infected with Ad.5-His-mda-7 (protein)
chain: QEFHFGPCQVKGVVPQKLWEAFWAVKDTMQAQDNITSARLLQQEVLQNVSDAESCYLVHTLLEFYLKTVFKNYHNRTVEVRTLKSFSTLANNFVLIVSQLQPSQENEMFSIRDSAHRRFLLFRRAFKQLDVEAALTKALGEVDILLTWMQKFYKL
osteoclastic activity of bone marrow from animals with Akt overexpressing cells (bone marrow cells): decreased | RANKL-induced Akt activation ([1]; MDA-7/IL-24 protein 10 μg/mL, RANKL 100 ng/mL): suppressed | Phosphor-GSK3β, NFATc1, and Mcl-1 expression increased by constitutively active Akt ([1]; RAW 264.7 cells transfected with MYR-Akt): inhibited | Mcl-1 expression ([1]; RAW 264.7 cells, MDA-7/IL-24 treatment): profoundly inhibited Mcl-1 expression | Cell proliferation (MTT assay) (PC3-ML cells [2]): significant inhibition in cell proliferation | Cell proliferation (MTT assay) (PC3-ML cells [2]; listed as MDA-7/IL-24): significantly impaired | bone metastasis (BLI signal / luciferase intensity) (PC3-ML cells [3]): significantly fewer metastatic lesions | bone metastasis (BLI signal / luciferase intensity) (PC3-ML cells [3]; listed as MDA-7/IL-24): significantly less evidence of metastasis; also recorded: a significant decrease in metastasis; also recorded: significant inhibition in luciferase intensity | bone metastasis (BLI signal / luciferase intensity) (PC3-ML cells [3]; [4]): significantly less metastatic lesions in their femurs; also recorded: significantly reduced the occurrence of bone metastasis | survival (PC3-ML cells [3]): enhancement of survival | survival (PC3-ML cells [3]; listed as MDA-7/IL-24): increased | toxicity in animals (PC3-ML cells [3]): non-toxic | toxicity in animals (PC3-ML cells [3]; [4]): without promoting toxicity | development of lung metastases (PC3-ML cells [3]; six doses of MDA-7/IL-24 protein 5 mg/kg): suppressed development of lung metastases
